The values that follow come from the supplement of paper PMC9112550, “Optimization of the antimicrobial peptide Bac7 by deep mutational scanning” (BMC Biology, 2022).

The data set deals with Escherichia coli TOP10. The data set can be described thus: shrunken log2 fold change of peptide-encoding DNA abundance (4.5 h post-induction vs induction); higher = less antimicrobial activity (less host growth inhibition). The conditions noted are these: time post-induction: 4.5 h; library: site-saturation at positions 5, 18, 19, 20.
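Note: peptides expressed intracellularly from a pBAD plasmid library in pooled LB shake-flask culture, induced with 0.3% L-arabinose, DNA abundance read by NGS, three biological replicates, DESeq2 with apeglm shrinkage.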

For RRIRNRPPRLPRPRPRPRMMPRP, the “shrunken log2 fold change” value stood at 0.0809. To RRIRFRPPRLPRPRPRPFWPPRP belongs 0.234. Turning to RRIRNRPPRLPRPRPRPMFHPRP, the “shrunken log2 fold change” value is -0.678.

Consider RRIRARPPRLPRPRPRPECDPRP, for which the “shrunken log2 fold change” value was 1.12. For the sequence RRIRRRPPRLPRPRPRPGSFPRP, the “shrunken log2 fold change” value stood at 0.122. As for RRIRHRPPRLPRPRPRPMISPRP, the “shrunken log2 fold change” value was -0.442.

Consider RRIRVRPPRLPRPRPRPKQFPRP, for which the “shrunken log2 fold change” value came to 0.109. With RRIRHRPPRLPRPRPRPIAHPRP, the “shrunken log2 fold change” value came to 0.0481.

Take RRIRHRPPRLPRPRPRPQKYPRP: the “shrunken log2 fold change” value is -0.383.

As to RRIRARPPRLPRPRPRPPGHPRP, the “shrunken log2 fold change” value was 0.779. With RRIRYRPPRLPRPRPRPTWGPRP, the “shrunken log2 fold change” value is -0.19. Take RRIRCRPPRLPRPRPRPMVLPRP: the “shrunken log2 fold change” value is -0.388. Turning to RRIRYRPPRLPRPRPRPDNEPRP, the “shrunken log2 fold change” value is -0.258. With RRIRQRPPRLPRPRPRPPYHPRP, the “shrunken log2 fold change” value was -0.208. On to RRIRCRPPRLPRPRPRPITYPRP, for which the “shrunken log2 fold change” value was -0.362. To RRIRERPPRLPRPRPRPRLQPRP belongs 0.0143. RRIRVRPPRLPRPRPRPFIIPRP: the “shrunken log2 fold change” value is -0.442.

On to RRIRFRPPRLPRPRPRPVEPPRP, for which the “shrunken log2 fold change” value was -0.228. With RRIRHRPPRLPRPRPRPQSMPRP, the “shrunken log2 fold change” value is -0.156. The figure for RRIRMRPPRLPRPRPRPGVDPRP is 1.68; for RRIRRRPPRLPRPRPRPPELPRP it is -0.0467. RRIRPRPPRLPRPRPRPTEIPRP: the “shrunken log2 fold change” value was 0.000528.

Regarding RRIRARPPRLPRPRPRPQKWPRP, the “shrunken log2 fold change” value came to 0.301. On to RRIRPRPPRLPRPRPRPPQGPRP, for which the “shrunken log2 fold change” value is 0.686.

Regarding RRIRYRPPRLPRPRPRPCYDPRP, the “shrunken log2 fold change” value was -0.379. The figure for RRIRRRPPRLPRPRPRPVPNPRP is 0.353; for RRIRERPPRLPRPRPRPMQHPRP it is -0.04; for RRIRHRPPRLPRPRPRPQGPPRP it is -0.235. For the sequence RRIRPRPPRLPRPRPRPVCAPRP, the “shrunken log2 fold change” value stood at 0.396. The figure for RRIRFRPPRLPRPRPRPKAYPRP is -0.436; for RRIRWRPPRLPRPRPRPIRFPRP it is -0.0926. Turning to RRIRVRPPRLPRPRPRPAMFPRP, the “shrunken log2 fold change” value is -0.0685. For RRIRDRPPRLPRPRPRPGPFPRP, the “shrunken log2 fold change” value was determined as 0.174. For RRIRCRPPRLPRPRPRPAHCPRP, the “shrunken log2 fold change” value turned out to be 1.77.

Regarding RRIRIRPPRLPRPRPRPRYIPRP, the “shrunken log2 fold change” value is -0.242. As for RRIRCRPPRLPRPRPRPMLIPRP, the “shrunken log2 fold change” value is -0.552. With RRIRRRPPRLPRPRPRPYYPPRP, the “shrunken log2 fold change” value is -0.468. As to RRIRPRPPRLPRPRPRPLNKPRP, the “shrunken log2 fold change” value is -0.55. For the sequence RRIRHRPPRLPRPRPRPQALPRP, the “shrunken log2 fold change” value is -0.278.

As for RRIRVRPPRLPRPRPRPMENPRP, the “shrunken log2 fold change” value was -0.0625. On to RRIRWRPPRLPRPRPRPDPSPRP, for which the “shrunken log2 fold change” value was -0.0349. The figure for RRIRKRPPRLPRPRPRPYQNPRP is -0.198; for RRIRKRPPRLPRPRPRPSHEPRP it is -0.218; for RRIRIRPPRLPRPRPRPHNSPRP it is -0.132.

For the sequence RRIRHRPPRLPRPRPRPSEEPRP, the “shrunken log2 fold change” value was -0.00149. On to RRIRIRPPRLPRPRPRPRWEPRP, for which the “shrunken log2 fold change” value worked out at 0.0225.

In the case of RRIRQRPPRLPRPRPRPTLLPRP, the “shrunken log2 fold change” value was -0.0944. To RRIRRRPPRLPRPRPRPEQAPRP belongs -0.0266; to RRIRKRPPRLPRPRPRPVQMPRP, 0.241. On to RRIRRRPPRLPRPRPRPEAEPRP, for which the “shrunken log2 fold change” value came to 0.853.

Consider RRIRPRPPRLPRPRPRPYRSPRP, for which the “shrunken log2 fold change” value is -0.295. With RRIRPRPPRLPRPRPRPNSCPRP, the “shrunken log2 fold change” value is -0.241. On to RRIRFRPPRLPRPRPRPLGSPRP, for which the “shrunken log2 fold change” value was 0.192. As to RRIRKRPPRLPRPRPRPGSNPRP, the “shrunken log2 fold change” value is -0.0467. The figure for RRIRIRPPRLPRPRPRPHKYPRP is -1.08; for RRIRNRPPRLPRPRPRPEVSPRP it is -0.0183. Turning to RRIRARPPRLPRPRPRPDKRPRP, the “shrunken log2 fold change” value turned out to be 0.109. Take RRIRERPPRLPRPRPRPGAPPRP: the “shrunken log2 fold change” value worked out at 0.301. On to RRIRNRPPRLPRPRPRPHQLPRP, for which the “shrunken log2 fold change” value is -0.0583. As to RRIRFRPPRLPRPRPRPEPVPRP, the “shrunken log2 fold change” value amounted to 0.326. For RRIRKRPPRLPRPRPRPLPPPRP, the “shrunken log2 fold change” value was determined as 1.01.

RRIRCRPPRLPRPRPRPHHGPRP: the “shrunken log2 fold change” value was -0.261.

Regarding RRIRGRPPRLPRPRPRPYHMPRP, the “shrunken log2 fold change” value was -0.345. RRIRVRPPRLPRPRPRPKYCPRP: the “shrunken log2 fold change” value is -0.221. With RRIRWRPPRLPRPRPRPFGCPRP, the “shrunken log2 fold change” value was -0.274.

Turning to RRIRERPPRLPRPRPRPKRNPRP, the “shrunken log2 fold change” value was -0.114. Take RRIRVRPPRLPRPRPRPGMSPRP: the “shrunken log2 fold change” value was 0.303. Take RRIRGRPPRLPRPRPRPMSCPRP: the “shrunken log2 fold change” value stood at 0.364. For RRIRMRPPRLPRPRPRPMCMPRP, the “shrunken log2 fold change” value is -0.179. Turning to RRIRTRPPRLPRPRPRPSNMPRP, the “shrunken log2 fold change” value was -0.851. For the sequence RRIRDRPPRLPRPRPRPIRQPRP, the “shrunken log2 fold change” value was found to be 0.193. As for RRIRHRPPRLPRPRPRPTTEPRP, the “shrunken log2 fold change” value was -0.0115. RRIRVRPPRLPRPRPRPEVIPRP: the “shrunken log2 fold change” value was -0.595. To RRIRQRPPRLPRPRPRPLFMPRP belongs -1.12; to RRIRPRPPRLPRPRPRPQYCPRP, -0.106; to RRIRRRPPRLPRPRPRPAHMPRP, 0.405.

In the case of RRIRWRPPRLPRPRPRPLWAPRP, the “shrunken log2 fold change” value is 0.417.

As to RRIRARPPRLPRPRPRPEKPPRP, the “shrunken log2 fold change” value is 0.64.

RRIRSRPPRLPRPRPRPVQTPRP: the “shrunken log2 fold change” value is 0.826.

Take RRIRWRPPRLPRPRPRPPWGPRP: the “shrunken log2 fold change” value was determined as 0.483. In the case of RRIRTRPPRLPRPRPRPYQKPRP, the “shrunken log2 fold change” value is -0.197. With RRIRGRPPRLPRPRPRPEKQPRP, the “shrunken log2 fold change” value turned out to be 0.034. Turning to RRIRARPPRLPRPRPRPFNTPRP, the “shrunken log2 fold change” value is -0.189. Consider RRIRVRPPRLPRPRPRPFKNPRP, for which the “shrunken log2 fold change” value is -0.055. The figure for RRIRNRPPRLPRPRPRPNFPPRP is -0.0305.

In the case of RRIRDRPPRLPRPRPRPLWTPRP, the “shrunken log2 fold change” value was 0.163. As for RRIRARPPRLPRPRPRPWYNPRP, the “shrunken log2 fold change” value is -0.305. On to RRIRMRPPRLPRPRPRPRHQPRP, for which the “shrunken log2 fold change” value was found to be 0.155. Take RRIRHRPPRLPRPRPRPRDIPRP: the “shrunken log2 fold change” value came to 0.115. As for RRIRTRPPRLPRPRPRPSIPPRP, the “shrunken log2 fold change” value is -0.356. RRIRYRPPRLPRPRPRPIQLPRP: the “shrunken log2 fold change” value was -0.0605.

For RRIRTRPPRLPRPRPRPPGDPRP, the “shrunken log2 fold change” value was determined as 0.189. As to RRIRNRPPRLPRPRPRPCANPRP, the “shrunken log2 fold change” value turned out to be 0.0435. Take RRIRSRPPRLPRPRPRPHVDPRP: the “shrunken log2 fold change” value is -0.0165. Turning to RRIRERPPRLPRPRPRPFYWPRP, the “shrunken log2 fold change” value is -0.158. The figure for RRIRKRPPRLPRPRPRPANKPRP is 0.142; for RRIRCRPPRLPRPRPRPMPDPRP it is -0.0379; for RRIRPRPPRLPRPRPRPPMRPRP it is 0.833.

With RRIRCRPPRLPRPRPRPEMLPRP, the “shrunken log2 fold change” value is -0.077.

With RRIRMRPPRLPRPRPRPNPTPRP, the “shrunken log2 fold change” value came to 0.849. Regarding RRIRDRPPRLPRPRPRPGARPRP, the “shrunken log2 fold change” value is 0.863. The figure for RRIRNRPPRLPRPRPRPMLKPRP is -0.0393; for RRIRVRPPRLPRPRPRPQIFPRP it is -0.0538.

Consider RRIRCRPPRLPRPRPRPDVGPRP, for which the “shrunken log2 fold change” value is -0.0874. To RRIRCRPPRLPRPRPRPWQKPRP belongs -0.0588; to RRIRWRPPRLPRPRPRPGGHPRP, 0.494.

Consider RRIRSRPPRLPRPRPRPSNAPRP, for which the “shrunken log2 fold change” value was -0.276. RRIRNRPPRLPRPRPRPPCWPRP: the “shrunken log2 fold change” value was found to be 0.231. For RRIRERPPRLPRPRPRPACAPRP, the “shrunken log2 fold change” value was determined as 0.455. The figure for RRIRSRPPRLPRPRPRPPRRPRP is 0.701. The figure for RRIRWRPPRLPRPRPRPFCEPRP is 0.376. Turning to RRIRPRPPRLPRPRPRPSHMPRP, the “shrunken log2 fold change” value is -0.466. Turning to RRIRFRPPRLPRPRPRPIWCPRP, the “shrunken log2 fold change” value was -0.0176. As to RRIRVRPPRLPRPRPRPEQMPRP, the “shrunken log2 fold change” value turned out to be 0.212. For the sequence RRIRARPPRLPRPRPRPKQSPRP, the “shrunken log2 fold change” value was 0.608. Take RRIRQRPPRLPRPRPRPRIMPRP: the “shrunken log2 fold change” value was -0.0396. In the case of RRIRIRPPRLPRPRPRPQQLPRP, the “shrunken log2 fold change” value was -0.0183. For the sequence RRIRIRPPRLPRPRPRPCRAPRP, the “shrunken log2 fold change” value was -0.284. Take RRIRFRPPRLPRPRPRPWVFPRP: the “shrunken log2 fold change” value is -0.00336. The figure for RRIRHRPPRLPRPRPRPSLEPRP is 0.0392.

For RRIRARPPRLPRPRPRPHFLPRP, the “shrunken log2 fold change” value was -0.127.

Turning to RRIRLRPPRLPRPRPRPKKGPRP, the “shrunken log2 fold change” value is -0.166. On to RRIRNRPPRLPRPRPRPPFLPRP, for which the “shrunken log2 fold change” value is -0.0418. Take RRIRARPPRLPRPRPRPLGWPRP: the “shrunken log2 fold change” value is 0.951.

Regarding RRIRGRPPRLPRPRPRPWDFPRP, the “shrunken log2 fold change” value came out at 0.328.
